Data on five substances can be found in paper PMC4112278.

What all share (assay): SEC
For assay [1], the target named is HIV-1_(ITM1_4) gp140 Env trimer (HIV-1 (isolate ITM1_4, clade A)).
Assay [2] deals with HIV-1_(UG37) gp140 Env trimer (HIV-1 (isolate UG37, clade A)).
The target of assay [3] is SIV_(mac239) gp140 Env trimer (SIV_(mac239)).
The target in assay [4] is HIV-1_(NIBSC40-9) gp140 Env trimer (HIV-1 (isolate NIBSC 40-9, clade A)).
Assay [5] deals with HIV-1_(YU2) gp140 Env trimer (HIV-1 (isolate YU2)).

In assay [1], “HIV-1_(ITM1_4) gp140 Env trimer (domain or fragment)” gave a stoichiometry N of 3.

In turn, “HIV-1_(UG37) gp140 Env trimer (domain or fragment)” returned a stoichiometry N in assay [2] of 3.

Turning to “SIV_(mac239) gp140 Env trimer (domain or fragment)”, in assay [3], the stoichiometry N came out at 3.

In assay [4], “HIV-1_(NIBSC40-9) gp140 Env trimer (domain or fragment)” gave a stoichiometry N of 3.

In assay [5], “HIV-1_(YU2) gp140 Env trimer (domain or fragment)” had a stoichiometry N of 3.
